{"source": "patent US11351270B2", "about": "“Junctophilin-2 fragments and uses therefor” (University of Iowa Research Foundation, priority 2016, dated 2022)", "molecules": {"B1": {"name": "full-length JP2: full-length junctophilin-2, FLAG/HA tagged, expressed by adenovirus (protein, UniProt Q9BR39 1-696, looked up)", "chain": "MSGGRFDFDDGGAYCGGWEGGKAHGHGLCTGPKGQGEYSGSWNFGFEVAGVYTWPSGNTFEGYWSQGKRHGLGIETKGRWLYKGEWTHGFKGRYGIRQSSSSGAKYEGTWNNGLQDGYGTETYADGGTYQGQFTNGMRHGYGVRQSVPYGMAVVVRSPLRTSLSSLRSEHSNGTVAPDSPASPASDGPALPSPAIPRGGFALSLLANAEAAARAPKGGGLFQRGALLGKLRRAESRTSVGSQRSRVSFLKSDLSSGASDAASTASLGEAAEGADEAAPFEADIDATTTETYMGEWKNDKRSGFGVSERSSGLRYEGEWLDNLRHGYGCTTLPDGHREEGKYRHNVLVKDTKRRMLQLKSNKVRQKVEHSVEGAQRAAAIARQKAEIAASRTSHAKAKAEAAEQAALAANQESNIARTLARELAPDFYQPGPEYQKRRLLQEILENSESLLEPPDRGAGAAGLPQPPRESPQLHERETPRPEGGSPSPAGTPPQPKRPRPGVSKDGLLSPGAWNGEPSGEGSRSVTPSEGAGRRSPARPATERMAIEALQAPPAPSREPEVALYQGYHSYAVRTTPPEPPPFEDQPEPEVSGSESAPSSPATAPLQAPTLRGPEPARETPAKLEPKPIIPKAEPRAKARKTEARGLTKAGAKKKARKEAALAAEAEVEVEEVPNTILICMVILLNIGLAILFVHLLT", "modifications": "full-length FLAG/HA tags; adenoviral expression", "notes": "full-length junctophilin-2, FLAG/HA tagged, expressed by adenovirus"}}, "key": {"JP2-KD cardiomyocytes": {"system": "JP2-KD cardiomyocytes", "test": "Confocal Ca2+ imaging in JP2-KD cardiomyocytes after adenoviral expression", "type": "cell-based, mouse", "excerpt": "Specifically, conditional shJP2 mice (provided by Dr. Wehrens) (van Oort et al., 2011) were crossed with mice carrying the cardiac-specific α-myosin heavy chain promoter upstream of Cre (% MHC-Cre, also FVB-Tg(Myh6-cre)2182Mds/J, The Jackson Laboratory). The shJP2 mice were maintained on a C57BL/6 background for more than 10 generations. The αMHC-Cre mice were maintained on an FVB background. PCR was used to genotype the offspring. The near complete depletion of JP2 protein in JP2-KD (αMHC-Cre X shJP2) hearts has been reported recently (Chen et al., 2013). JP2-KD mice were sacrificed at 2 months of age for isolation and culture of ventricular cardiomyocytes as described below.\n(§1) Genecarrior-1 (Epoch Lab) was used to transfect plasmids into HEK293T cells. Isolation and culture of cardiomyocytes were performed as described previously (Guo et al., 2012). […] Ca^2+ Imaging experiments were performed 40 hours after adenoviral infection.\n(§2) Cells were loaded with Rhod-2AM at 37° C. for 20 minutes, followed by washing with Tyrode's solution at room temperature for 15 minutes before Ca^2+ imaging. Confocal images were acquired using a ×63, 1.3 numerical aperture oil immersion objective mounted on a Zeiss LSM 510 confocal microscope. Confocal line scanning was used to record Ca^2+ signals. Steady-state Ca^2+ transients were recorded in Tyrode's solution containing 1.8 mM Ca^2+ under field stimulation of 1 Hz. At least five steady-state transients for each cell were analyzed and averaged to represent Ca^2+ signals of the cell. Ca^2+ imaging data were analyzed by using a home-complied software, CaTeasy, which is coded in MATLAB 2013a (Mathworks). Briefly, the program normalizes Ca^2+ transient images on a column-by-column basis (512 columns/image). The characteristic parameters of normalized transients were detected automatically. The firing time of every scanning pixel was detected column by column on the basis of the maximum local variability of pixel intensity. The profile of the point-to-point firing time was indicated by a red line overlapping on the Ca^2+ image. Index of desynchronization, defined by the mean absolute deviation of firing time of each scanning pixel (with every 8 pixels binned), was used to evaluate the dyssynchrony of Ca^2+ transients. This automated software for calcium transient analysis is available upon request."}, "WT cardiomyocytes": {"system": "WT cardiomyocytes", "test": "Confocal Ca2+ imaging in WT cardiomyocytes after adenoviral expression", "type": "cell-based, mouse", "details": "1-Hz field stimulation; overexpression in WT cardiomyocytes", "procedure": "as §1\nas §2, with “Index of desynchronization, defined by the mean absolute deviation of firing time of each scanning pixel (with every 8 pixels binned), was used to evaluate the dyssynchrony of Ca^2+ transients. This automated software for calcium transient analysis is available upon request.” left out"}, "RyR2 and Cav1.2": {"system": "RyR2 and Cav1.2", "test": "Coimmunoprecipitation with E-C coupling channels", "type": "binding, mouse", "details": "anti-HA immunoprecipitation", "excerpt": "FIGS. 5A-H. JP2 truncations are nonfunctional in regulating Ca^2+ transients. A) An antibody against the HA tag was used to reveal the localization of adenoviral expression of tagged full-length JP2 and truncations, as indicated, in adult wild-type cardiomyocytes. All the three version of JP2 can be localized in the striated pattern. B) Full-length JP2 and JP2(1-565) forms complexes with RyR2 and Cav1.2 In vivo. An antibody against HA was used for immunoprecipitation […]. The RyR2 and Cav1.2 that were pulled down were detected by Western blot analysis. […] IB, immunoblot. C) Adenovirus-mediated expression of full-length JP2, FLAG-JP2(1-565)-HA, and JP2(566-end)-HA in JP2-KD) cardiomyocytes. D) Representative steady-state Ca^2+ transients under 1-Hz field stimulation. The fluorescence intensity (F) of Ca^2+ imaging was normalized to the baseline (FO). The red lines overlapping on Ca^2+ imaging show the profile of the moment of Ca^2+ transient firing on the scanning line in a point-by-point way. A straighter line means better synchronization of the Ca^2+ transients. Note that expression of full-length JP2, but not JP2 truncations, improves the amplitude and synchronization of Ca^2+ transients. E-G) Summary of Ca^2+ transient amplitude, index of desynchronization (mean absolute deviation of firing time), and duration of 50% decay (T5) (n=68, 70, 70, and 52 for Ad-Empty, Ad-JP2, […], and Ad-JP2(566-end), respectively). Only full-length JP2 Improves the amplitude, synchronization, and decay of Ca^2+ transients. H) Summary of SR Ca^2+ content, which was assessed by caffeine-induced SR Ca^2+ release (n=17, 17, 17, and 12 for Ad-Empty, Ad-JP2, Ad-JP2(1-565), and Ad-JP2(566-end), respectively). **, p<0.01 versus indicated groups; N.S., not significant.\nCleavage at the primary calpain proteolysis site (Arg-565/Thr-566) splits apart the C-terminal SR-binding TM domain and N-terminal plasma membrane-binding MORN domains of JP2. […]"}, "[1]": {"system": "cultured adult murine cardiomyocytes", "test": "Affymetrix Genechip analysis of cultured cardiomyocytes", "type": "cell-based, mouse", "details": "vs Ad-Empty control", "procedure": "Genecarrior-1 (Epoch Lab) was used to transfect plasmids into HEK293T cells. Isolation and culture of cardiomyocytes were performed as described previously (Guo et al., 2015). Adenoviruses were applied at a multiplicity of infection (MOI) of about 100, which results in transfection of almost all cells as confirmed by immunostaining of eptiope tags.\nMicroarray assay was performed by Affymetrix GeneChip® Mouse Genome 430 2.0 according to the standard procedure of cRNA preparation and Genechip hybridization. The R package limma (version 3.22.7) (Ritchie et al., 2015) was used for processing microarray data and identifying differentially expressed genes (the cutoff of significance was p value<0.01). David (Huang et al., 2009) was used for gene enrichment (GO) analysis. Ingenuity pathway analysis (IPA, Qiagen) was used for pathway analysis."}}, "data": [{"molecule": "B1", "values": [{"measurement": "decay phase (T50) of Ca2+ transients", "setting": "JP2-KD cardiomyocytes; 1-Hz field stimulation", "result": "shortened decay phase"}, {"measurement": "synchronization of Ca2+ transients (index of desynchronization)", "setting": "JP2-KD cardiomyocytes; 1-Hz field stimulation", "result": "increased synchronization"}, {"measurement": "increase of Ca2+ transient amplitude", "setting": "JP2-KD cardiomyocytes; 1-Hz field stimulation, adenoviral expression", "result": 50, "unit": "%"}, {"measurement": "SR Ca2+ content", "setting": "JP2-KD cardiomyocytes; caffeine-induced SR Ca2+ release", "result": "not influenced"}, {"measurement": "kinetics of steady-state Ca2+ transients and SR Ca2+ loading", "setting": "WT cardiomyocytes", "result": "did not alter"}, {"measurement": "interaction with RyR2 and Cav1.2", "setting": "RyR2 and Cav1.2", "result": "interact"}, {"measurement": "significantly induced known genes (p<0.01)", "setting": "[1]", "result": 96, "unit": "genes"}, {"measurement": "significantly repressed known genes (p<0.01)", "setting": "[1]", "result": 264, "unit": "genes"}]}]}
